Four variants from paper PMC4463457 can be followed below.

B1: VSV-SNAP-hD3 (VSV- and SNAP-tagged human dopamine D3 receptor) [modified: SNAP tag covalently labelled with SNAP-Lumi4-Tb or SNAP-Red; SNAP tag covalently labelled with SNAP-Lumi4-Tb or SNAP-Red] [human] / … (parent)
chain: MASLSQLSGHLNYTCGAENSTGASQARPHAYYALSYCALILAIVFGNGLVCMAVLKERALQTTTNYLVVSLAVADLLVATLVMPWVVYLEVTGGVWNFSRICCDVFVTLDVMMCTASILNLCAISIDRYTAVVMPVHYQHGTGQSSCRRVALMITAVWVLAFAVSCPLLFGFNTTGDPTVCSISNPDFVIYSSVVSFYLPFGVTVLVYARIYVVLKQRRRKRILTRQNSQCNSVRPGFPQQTLSPDPAHLELKRYYSICQDTALGGPGFQERGGELKREEKTRNSLSPTIAPKLSLEVRKLSNGRLSTSLKLGPLQPRGVPLREKKATQMVAIVLGAFIVCWLPFFLTHVLNTHCQTCHVSPELYSATTWLGYVNSALNPVIYTTFNIEFRKAFLKILSC

The variants in the experiment derive from B1. In words: htrFRET. The note with it: with itself; HEK293T cells transfected with increasing amounts of construct; read off a plot.
As for chain 1 Y31A Y32A L34A S35A, the ratio to parent came to 1. On to chain 1 D187A I190A V194A L199A, for which the ratio to parent is 0.89. As for chain 1 R210A Y212A V213A K216A, the figure is 0.76; as for chain 1 F394A L395A K396A, 0.5.
